Measurements taken from publication PMC3210151 (2011).

B1: RON Sema-PSI-IPT1–4 (Glu25-Ser956) (domain or fragment)
chain: EDWQCPRTPYAASRDFDVKYVVPSFSAGGLVQAMVTYEGDRNESAVFVAIRNRLHVLGPDLKSVQSLATGPAGDPGCQTCAACGPGPHGPPGDTDTKVLVLDPALPALVSCGSSLQGRCFLHDLEPQGTAVHLAAPACLFSAHHNRPDDCPDCVASPLGTRVTVVEQGQASYFYVASSLDAAVAASFSPRSVSIRRLKADASGFAPGFVALSVLPKHLVSYSIEYVHSFHTGAFVYFLTVQPASVTDDPSALHTRLARLSATEPELGDYRELVLDCRFAPKLVPRGSPEGGQPYPVLRVAHSAPVGAQLATELSIAEGQEVLFGVFVTGKDGGPGVGPNSVVCAFPIDLLDTLIDEGVERCCESPVHPGLRRGLDFFQSPSFCPNPPGLEALSPNTSCRHFPLLVSSSFSRVDLFNGLLGPVQVTALYVTRLDNVTVAHMGTMDGRILQVELVRSLNYLLYVSNFSLGDSGQPVQRDVSRLGDHLLFASGDQVFQVPIQGPGCRHFLTCGRCLRAWHFMGCGWCGNMCGQQKECPGSWQQDHCPPKLTEFHPHSGPLRGSTRLTLCGSNFYLHPSGLVPEGTHQVTVGQSPCRPLPKDSSKLRPVPRKDFVEEFECELEPLGTQAVGPTNVSLTVTNMPPGKHFRVDGTSVLRGFSFMEPVLIAVQPLFGPRAGGTCLTLEGQSLSVGTSRAVLVNGTECLLARVSEGQLLCATPPGATVASVPLSLQVGGAQVPGSWTFQYREDPVVLSISPNCGYINSHITICGQHLTSAWHLVLSFHDGLRAVESRCERQLPEQQLCRLPEYVVRDPQGWVAGNLSARGDGAAGFTLPGFRFLPPPHPPSANLVPLKPEEHAIKFEYIGLGAVADCVGINVTVGGESCQHEFRGDMVVCPLPPSLQLGQDGAPLQVCVDGECHILGRVVRPGPDGVPQS
B2: RON Sema (Glu25-Gly524) (domain or fragment)
chain: EDWQCPRTPYAASRDFDVKYVVPSFSAGGLVQAMVTYEGDRNESAVFVAIRNRLHVLGPDLKSVQSLATGPAGDPGCQTCAACGPGPHGPPGDTDTKVLVLDPALPALVSCGSSLQGRCFLHDLEPQGTAVHLAAPACLFSAHHNRPDDCPDCVASPLGTRVTVVEQGQASYFYVASSLDAAVAASFSPRSVSIRRLKADASGFAPGFVALSVLPKHLVSYSIEYVHSFHTGAFVYFLTVQPASVTDDPSALHTRLARLSATEPELGDYRELVLDCRFAPKLVPRGSPEGGQPYPVLRVAHSAPVGAQLATELSIAEGQEVLFGVFVTGKDGGPGVGPNSVVCAFPIDLLDTLIDEGVERCCESPVHPGLRRGLDFFQSPSFCPNPPGLEALSPNTSCRHFPLLVSSSFSRVDLFNGLLGPVQVTALYVTRLDNVTVAHMGTMDGRILQVELVRSLNYLLYVSNFSLGDSGQPVQRDVSRLGDHLLFASGDQVFQVPIQG

Key:
[1] = biological target: RON Sema-PSI-IPT1 (Glu25-Glu683) (human) (UniProt Q04912); experiment: SPR; same sensorgrams as the kinetic analysis (RON constructs amine-coupled to CM5, MSPβ as analyte, 10 mM Na-HEPES pH 8.0, 150 mM NaCl, 0.005% P20, 25°C); Kd from an equilibrium model
[2] = biological target: RON Sema (Glu25-Gly524) (human) (UniProt Q04912); experiment: as above
[3] = biological target: RON Sema-PSI-IPT1–4 (Glu25-Ser956) (human) (UniProt Q04912); experiment: as above
[4] = biological target: RON Sema-PSI (Glu25-Pro568) (human) (UniProt Q04912); experiment: as above
[5] = biological target: RON Sema-PSI-IPT1 (Glu25-Glu683) (human) (UniProt Q04912); experiment: SPR; Biacore T100; RON constructs amine-coupled to a CM5 chip; MSPβ as analyte (wild type 5-500 nM, R689C 32-2000 nM); 10 mM Na-HEPES pH 8.0, 150 mM NaCl, 0.005% P20, 25°C; global fit to a 1:1 Langmuir kinetic model
[6] = biological target: RON Sema (Glu25-Gly524) (human) (UniProt Q04912); experiment: as above
[7] = biological target: RON Sema-PSI-IPT1–4 (Glu25-Ser956) (human) (UniProt Q04912); experiment: as above
[8] = biological target: RON Sema-PSI (Glu25-Pro568) (human) (UniProt Q04912); experiment: as above
RON constructs = experiment: SPR; dimeric MSPβ R689C on RON constructs; method and conditions not told in the sentence (SPR is the paper's only binding method)
[9] = biological target: wild type MSPβ (macrophage stimulating protein β-chain with the adjoining 19 residues of the α-chain, … (human, UniProt P26927 465-711, C672S)); experiment: SPR; solution competition
[10] = biological target: MSPβ R689C (Phe465-Gly711, C672S, R689C) (human, UniProt P26927 465-711, C672S | R689C); experiment: SPR; solution competition

Row | Molecule | Kd [1] | Kd [2] | Kd [3] | Kd [4] | Kd [5] | koff [5] | kon [5] | Kd [6] | koff [6] | kon [6] | Kd [7] | koff [7] | kon [7] | Kd [8] | koff [8] | kon [8] | Kd (RON constructs) | Kd [9] | Kd [10]
1 | MSPβ R689C (Phe465-Gly711, C672S, R689C) (from UniProt P26927 465-711) (domain or fragment) | 154 nM | 139 nM | 158 nM | 244 nM | 148 nM | 0.129 s⁻¹ | 870000 M⁻¹ s⁻¹ | 170 nM | 0.081 s⁻¹ | 480000 M⁻¹ s⁻¹ | 157 nM | 0.055 s⁻¹ | 350000 M⁻¹ s⁻¹ | 233 nM | 0.062 s⁻¹ | 270000 M⁻¹ s⁻¹ |  |  | 
2 | dimeric MSPβ R689C (from UniProt P26927 465-711) (complex) |  |  |  |  |  |  |  |  |  |  |  |  |  |  |  |  | 3.7 to 4.9 nM |  | 
3 | wild type MSPβ (macrophage stimulating protein β-chain with the adjoining 19 residues of the α-chain, Phe465-Gly711, C672S) (from UniProt P26927 465-711) (domain or fragment) | 17.8 nM | 16.4 nM | 22.6 nM | 32 nM | 15.1 nM | 0.027 s⁻¹ | 1.76e+06 M⁻¹ s⁻¹ | 13.3 nM | 0.031 s⁻¹ | 2.31e+06 M⁻¹ s⁻¹ | 13.5 nM | 0.023 s⁻¹ | 1.69e+06 M⁻¹ s⁻¹ | 21.2 nM | 0.028 s⁻¹ | 1.33e+06 M⁻¹ s⁻¹ |  |  | 
4 | B1 |  |  |  |  |  |  |  |  |  |  |  |  |  |  |  |  |  | 52.8 nM | 381 nM
5 | B2 |  |  |  |  |  |  |  |  |  |  |  |  |  |  |  |  |  | 17.6 nM | 
